# Legend:
# [1] = molecular target: paclitaxel-stabilized microtubules (bovine brain tubulin) (bovine (purified from juvenile bovine brains)) (UniProt Q6B856); assay: TIRF microscopy, fluorescence intensity on microtubules against concentration; fluorescently-labeled microtubules adhered to cover glass; CCA-GFP introduced at increasing concentrations and allowed to equilibrate; line-scan intensity fit to a Michaelis-Menten curve (binding isotherm)
# [2] = molecular target: paclitaxel-stabilized microtubules (bovine brain tubulin) (bovine (purified from juvenile bovine brains)) (UniProt Q6B856); assay: calculated from the TIRF intensity titration (KD) and the single-molecule lifetimes (koff); association rate constant inferred from KD and koff, not measured directly
# [3] = molecular target: paclitaxel-stabilized microtubules (bovine brain tubulin) (bovine (purified from juvenile bovine brains)) (UniProt Q6B856); assay: TIRF microscopy, fluorescence intensity on microtubules; one flow chamber containing both brightly-labeled microtubules and dimly-labeled, subtilisin-digested microtubules; CCA-GFP in solution; line-scan intensity, mean ± SD
# [4] = molecular target: paclitaxel-stabilized microtubules (bovine brain tubulin) (bovine (purified from juvenile bovine brains)) (UniProt Q6B856); assay: TIRF microscopy, fluorescence intensity on microtubules; surface-immobilized microtubules; CCA-GFP with no added salt, 25 mM KCl or 50 mM KCl; line-scan intensity, mean ± SD
# [5] = molecular target: paclitaxel-stabilized microtubules (bovine brain tubulin) (bovine (purified from juvenile bovine brains)) (UniProt Q6B856); assay: TIRF microscopy, single-molecule assay for microtubule-associated proteins; rhodamine-labeled microtubules immobilised on the surface by anti-rhodamine antibodies; CCA-GFP in solution; lifetimes of tracked single molecules, exponential fit, corrected for photobleaching
# [6] = molecular target: subtilisin-digested microtubules (C-terminal tails of tubulin removed) (bovine (purified from juvenile bovine brains))
# [7] = molecular target: paclitaxel-stabilized microtubules (bovine brain tubulin) (bovine (purified from juvenile bovine brains)) (UniProt Q6B856)
substance,measurement,setting,value
"CCA-GFP, minimal chromosome passenger complex of INCENP a.a. 491-873 (coiled-coil domain and INBox) and Aurora-B (from UniProt O13024 491-873; Q6DE08 1-361)",Kd,[1],80 nM
same,kon,[2],8.25e+06 M⁻¹ s⁻¹
same,GFP intensity on undigested microtubules,[3],375 a.u.
same,"CCA-GFP intensity on microtubules, 25 mM KCl added",[4],117 a.u.
same,"CCA-GFP intensity on microtubules, 50 mM KCl added",[4],27 a.u.
same,"CCA-GFP intensity on microtubules, no added salt",[4],277 a.u.
same,koff,[5],0.66 s⁻¹
same,mean residence time on the lattice,[5],1.5 s
same,"normalized 32P band intensity of the INBox motif (CCA auto-phosphorylation) in an in vitro kinase assay with 3 µM subtilisin-digested microtubules; buffer control 0.62, undigested microtubules 0.92",[6],0.64 a.u.
same,normalized 32P band intensity of the INBox motif (CCA auto-phosphorylation) in an in vitro kinase assay with 3 µM microtubules; buffer control 0.62,[7],0.92 a.u.
